The test has as its target SARS-CoV nsp7L8 fusion protein (SARS-CoV, UniProt P0C6X7). The experiment in a line: SPR.

B1: SARS-CoV nsp12 polymerase subunit (enzyme)
chain: SADASTFLNRVCGVSAARLTPCGTGTSTDVVYRAFDIYNEKVAGFAKFLKTNCCRFQEKDEEGNLLDSYFVVKRHTMSNYQHEETIYNLVKDCPAVAVHDFFKFRVDGDMVPHISRQRLTKYTMADLVYALRHFDEGNCDTLKEILVTYNCCDDDYFNKKDWYDFVENPDILRVYANLGERVRQSLLKTVQFCDAMRDAGIVGVLTLDNQDLNGNWYDFGDFVQVAPGCGVPIVDSYYSLLMPILTLTRALAAESHMDADLAKPLIKWDLLKYDFTEERLCLFDRYFKYWDQTYHPNCINCLDDRCILHCANFNVLFSTVFPPTSFGPLVRKIFVDGVPFVVSTGYHFRELGVVHNQDVNLHSSRLSFKELLVYAADPAMHAASGNLLLDKRTTCFSVAALTNNVAFQTVKPGNFNKDFYDFAVSKGFFKEGSSVELKHFFFAQDGNAAISDYDYYRYNLPTMCDIRQLLFVVEVVDKYFDCYDGGCINANQVIVNNLDKSAGFPFNKWGKARLYYDSMSYEDQDALFAYTKRNVIPTITQMNLKYAISAKNRARTVAGVSICSTMTNRQFHQKLLKSIAATRGATVVIGTSKFYGGWHNMLKTVYSDVETPHLMGWDYPKCDRAMPNMLRIMASLVLARKHNTCCNLSHRFYRLANECAQVLSEMVMCGGSLYVKPGGTSSGDATTAYANSVFNICQAVTANVNALLSTDGNKIADKYVRNLQHRLYECLYRNRDVDHEFVDEFYAYLRKHFSMMILSDDAVVCYNSNYAAQGLVASIKNFKAVLYYQNNVFMSEAKCWTETDLTKGPHEFCSQHTMLVKQGDDYVYLPYPDPSRILGAGCFVDDIVKTDGTLMIERFVSLAIDAYPLTKHPNQEYADVFHLYLQYIRKLHDELTGHMLDMYSVMLTNDNTSRYWEPEFYEAMYTPHTVLQ
As for B1, the binding result is “binds”.

The values are drawn from publication doi:10.1101/2020.04.23.057265 (bioRxiv, 2020).
